Assay results from article PMC9482650, “Quantitative fragmentomics allow affinity mapping of interactomes” (Nature Communications, 2022).

T1: ARHGAP21, Q5T5U3
T1 sequence (Q5T5U3 45-169, limits assumed, looked up): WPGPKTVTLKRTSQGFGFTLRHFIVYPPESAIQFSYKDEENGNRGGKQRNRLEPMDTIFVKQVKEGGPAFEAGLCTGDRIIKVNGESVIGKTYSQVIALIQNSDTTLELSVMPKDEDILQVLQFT

T2: CARD11, Q9BXL7
T2 sequence (Q9BXL7 662-765, limits assumed, looked up): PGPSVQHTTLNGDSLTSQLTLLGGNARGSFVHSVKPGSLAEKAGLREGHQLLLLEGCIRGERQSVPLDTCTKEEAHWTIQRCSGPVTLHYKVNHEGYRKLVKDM

T3: FRMPD1, Q5SYB0
T3 sequence (Q5SYB0 52-145, limits assumed, looked up): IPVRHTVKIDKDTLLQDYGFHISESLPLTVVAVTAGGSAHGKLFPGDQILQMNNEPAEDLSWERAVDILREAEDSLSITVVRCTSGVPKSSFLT

T4: LIN7A, O14910
T4 sequence (O14910 103-200, limits assumed, looked up): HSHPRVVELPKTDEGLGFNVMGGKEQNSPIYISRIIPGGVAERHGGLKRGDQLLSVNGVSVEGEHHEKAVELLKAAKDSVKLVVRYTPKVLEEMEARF

T5: LNX2_3, Q8N448
T5 sequence (Q8N448 463-564, limits assumed, looked up): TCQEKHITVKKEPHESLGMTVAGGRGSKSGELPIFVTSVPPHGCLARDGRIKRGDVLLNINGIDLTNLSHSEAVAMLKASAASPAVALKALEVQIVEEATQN

T6: MPP2, Q14168
T6 sequence (Q14168 180-250, limits assumed, looked up): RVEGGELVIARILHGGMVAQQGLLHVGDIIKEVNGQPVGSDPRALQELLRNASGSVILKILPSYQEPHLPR

T7: PARD3B_1, Q8TEW8
T7 sequence (Q8TEW8 196-299, limits assumed, looked up): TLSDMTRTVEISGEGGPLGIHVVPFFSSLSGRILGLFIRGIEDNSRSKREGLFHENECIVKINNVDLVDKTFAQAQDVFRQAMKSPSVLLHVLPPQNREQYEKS

T8: PDZRN3_1, Q9UPQ7
T8 sequence (Q9UPQ7 244-349, limits assumed, looked up): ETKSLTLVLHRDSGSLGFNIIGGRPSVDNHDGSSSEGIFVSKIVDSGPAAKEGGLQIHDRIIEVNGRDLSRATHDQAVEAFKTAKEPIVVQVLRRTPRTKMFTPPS

T9: RADIL, Q96JH8
T9 sequence (Q96JH8 971-1071, limits assumed, looked up): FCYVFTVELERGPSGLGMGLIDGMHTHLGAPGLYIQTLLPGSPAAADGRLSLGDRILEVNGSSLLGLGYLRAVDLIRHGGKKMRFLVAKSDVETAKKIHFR

B1: SRC, P12931 (peptide)
chain: EPQYQPGENL
B2: CLDN18, P56856 (peptide)
chain: QSYPSKHDYV
B3: HTR2A, P28223 (peptide)
chain: DGVNEKVSCV

Molecular target: T1, ARHGAP21, Q5T5U3
Assay: holdup assay
Parameters: key: below the threshold = too weak to quantify, mostly under pKd 3.1 to 4
Conditions: plain residues with an end cap or a label only (N-terminal biotin on a linker: ado-ado)

Row | Binder | pKd
1 | B1 | 4
2 | B2 | 3.99
3 | B3 | below the threshold

Molecular target: ARHGEF12, Q9NZN5-2
Assay: holdup assay
Parameters: key: below the threshold = too weak to quantify, mostly under pKd 3.1 to 4
Conditions: plain residues with an end cap or a label only (N-terminal biotin on a linker: ado-ado)

Chain of ARHGEF12, Q9NZN5-2 (Q9NZN5 other isoform, or with tags, fused parts or gaps): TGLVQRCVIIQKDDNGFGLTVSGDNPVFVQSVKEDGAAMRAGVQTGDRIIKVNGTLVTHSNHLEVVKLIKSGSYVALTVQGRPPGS

Row | Binder | pKd
4 | B1 | below the threshold
5 | B2 | below the threshold
6 | B3 | 4.36

Molecular target: T2, CARD11, Q9BXL7
Assay: holdup assay
Parameters: key: below the threshold = too weak to quantify, mostly under pKd 3.1 to 4
Conditions: plain residues with an end cap or a label only (N-terminal biotin on a linker: ado-ado)

Row | Binder | pKd
7 | B1 | below the threshold
8 | B2 | below the threshold
9 | B3 | below the threshold

Molecular target: DLG2_2, Q15700
Assay: holdup assay
Parameters: key: below the threshold = too weak to quantify, mostly under pKd 3.1 to 4
Conditions: plain residues with an end cap or a label only (N-terminal biotin on a linker: ado-ado)

Chain of DLG2_2, Q15700 (Q15700 189-283): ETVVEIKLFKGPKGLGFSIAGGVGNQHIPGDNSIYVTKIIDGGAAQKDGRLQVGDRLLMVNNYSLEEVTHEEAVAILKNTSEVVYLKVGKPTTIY

Row | Binder | pKd
10 | B1 | below the threshold
11 | B2 | below the threshold
12 | B3 | 4.56

Molecular target: DLG4_1, P78352
Assay: holdup assay
Parameters: key: below the threshold = too weak to quantify, mostly under pKd 3.1 to 4
Conditions: plain residues with an end cap or a label only (N-terminal biotin on a linker: ado-ado)

Chain of DLG4_1, P78352 (P78352 62-152): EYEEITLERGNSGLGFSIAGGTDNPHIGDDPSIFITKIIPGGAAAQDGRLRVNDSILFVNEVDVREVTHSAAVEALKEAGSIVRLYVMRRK

Row | Binder | pKd
13 | B1 | below the threshold
14 | B2 | 3.67
15 | B3 | 3.69

Molecular target: T3, FRMPD1, Q5SYB0
Assay: holdup assay
Parameters: key: below the threshold = too weak to quantify, mostly under pKd 3.1 to 4
Conditions: plain residues with an end cap or a label only (N-terminal biotin on a linker: ado-ado)

Row | Binder | pKd
16 | B1 | below the threshold
17 | B2 | below the threshold
18 | B3 | below the threshold

Molecular target: FRMPD3, Q5JV73
Assay: holdup assay
Parameters: key: below the threshold = too weak to quantify, mostly under pKd 3.1 to 4
Conditions: plain residues with an end cap or a label only (N-terminal biotin on a linker: ado-ado)

Chain of FRMPD3, Q5JV73 (Q5JV73 12-100): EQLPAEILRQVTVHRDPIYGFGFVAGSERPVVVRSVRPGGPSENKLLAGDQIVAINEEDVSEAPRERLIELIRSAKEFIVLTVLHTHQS

Row | Binder | pKd
19 | B1 | below the threshold
20 | B2 | below the threshold
21 | B3 | below the threshold

Molecular target: GIPC2, Q8TF65
Assay: holdup assay
Parameters: key: below the threshold = too weak to quantify, mostly under pKd 3.1 to 4
Conditions: plain residues with an end cap or a label only (N-terminal biotin on a linker: ado-ado)

Chain of GIPC2, Q8TF65 (Q8TF65 112-203): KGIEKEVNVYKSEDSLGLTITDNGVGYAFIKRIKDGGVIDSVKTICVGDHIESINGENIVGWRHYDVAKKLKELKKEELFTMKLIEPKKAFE

Row | Binder | pKd
22 | B1 | below the threshold
23 | B2 | below the threshold
24 | B3 | below the threshold

Molecular target: GRASP, Q7Z6J2
Assay: holdup assay
Parameters: key: below the threshold = too weak to quantify, mostly under pKd 3.1 to 4
Conditions: plain residues with an end cap or a label only (N-terminal biotin on a linker: ado-ado)

Chain of GRASP, Q7Z6J2 (Q7Z6J2 96-193): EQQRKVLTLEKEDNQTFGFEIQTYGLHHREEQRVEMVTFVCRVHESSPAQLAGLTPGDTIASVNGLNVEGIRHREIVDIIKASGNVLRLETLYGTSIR

Row | Binder | pKd
25 | B1 | below the threshold
26 | B2 | 3.71
27 | B3 | 4.21

Molecular target: GRIP2_6, Q9C0E4
Assay: holdup assay
Parameters: key: below the threshold = too weak to quantify, mostly under pKd 3.1 to 4
Conditions: plain residues with an end cap or a label only (N-terminal biotin on a linker: ado-ado)

Chain of GRIP2_6, Q9C0E4 (Q9C0E4 648-740): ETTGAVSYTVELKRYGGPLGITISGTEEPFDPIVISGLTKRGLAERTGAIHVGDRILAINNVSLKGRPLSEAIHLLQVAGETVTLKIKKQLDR

Row | Binder | pKd
28 | B1 | below the threshold
29 | B2 | below the threshold
30 | B3 | below the threshold

Molecular target: Inadl_10, Q8NI35
Assay: holdup assay
Parameters: key: below the threshold = too weak to quantify, mostly under pKd 3.1 to 4
Conditions: plain residues with an end cap or a label only (N-terminal biotin on a linker: ado-ado)

Chain of Inadl_10, Q8NI35 (Q8NI35 1673-1763): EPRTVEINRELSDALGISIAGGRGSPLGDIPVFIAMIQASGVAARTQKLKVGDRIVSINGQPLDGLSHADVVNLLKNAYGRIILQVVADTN

Row | Binder | pKd
31 | B1 | below the threshold
32 | B2 | below the threshold
33 | B3 | below the threshold

Molecular target: Inadl_3, Q8NI35
Assay: holdup assay
Parameters: key: below the threshold = too weak to quantify, mostly under pKd 3.1 to 4
Conditions: plain residues with an end cap or a label only (N-terminal biotin on a linker: ado-ado)

Chain of Inadl_3, Q8NI35 (Q8NI35 359-469): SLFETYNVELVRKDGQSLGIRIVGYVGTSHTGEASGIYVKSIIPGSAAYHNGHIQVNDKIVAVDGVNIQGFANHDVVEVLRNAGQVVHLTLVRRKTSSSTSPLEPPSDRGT

Row | Binder | pKd
34 | B1 | below the threshold
35 | B2 | below the threshold
36 | B3 | below the threshold

Molecular target: Inadl_8, Q8NI35
Assay: holdup assay
Parameters: key: below the threshold = too weak to quantify, mostly under pKd 3.1 to 4
Conditions: plain residues with an end cap or a label only (N-terminal biotin on a linker: ado-ado)

Chain of Inadl_8, Q8NI35 (Q8NI35 1425-1530): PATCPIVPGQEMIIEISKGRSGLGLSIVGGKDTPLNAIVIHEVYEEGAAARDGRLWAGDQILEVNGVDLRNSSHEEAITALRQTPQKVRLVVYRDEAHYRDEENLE

Row | Binder | pKd
37 | B1 | below the threshold
38 | B2 | 4.22
39 | B3 | 4.81

Molecular target: LDB3, O75112
Assay: holdup assay
Parameters: key: below the threshold = too weak to quantify, mostly under pKd 3.1 to 4
Conditions: plain residues with an end cap or a label only (N-terminal biotin on a linker: ado-ado)

Chain of LDB3, O75112 (O75112 1-94): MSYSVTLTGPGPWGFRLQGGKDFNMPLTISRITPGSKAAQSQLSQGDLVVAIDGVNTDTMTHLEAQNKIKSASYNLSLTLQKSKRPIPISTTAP

Row | Binder | pKd
40 | B1 | below the threshold
41 | B2 | below the threshold
42 | B3 | below the threshold

Molecular target: LIMK2, P53671
Assay: holdup assay
Parameters: key: below the threshold = too weak to quantify, mostly under pKd 3.1 to 4
Conditions: plain residues with an end cap or a label only (N-terminal biotin on a linker: ado-ado)

Chain of LIMK2, P53671 (P53671 143-248): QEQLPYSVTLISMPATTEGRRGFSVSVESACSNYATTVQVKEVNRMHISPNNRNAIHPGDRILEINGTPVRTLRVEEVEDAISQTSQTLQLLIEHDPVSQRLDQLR

Row | Binder | pKd
43 | B1 | below the threshold
44 | B2 | below the threshold
45 | B3 | below the threshold

Molecular target: T4, LIN7A, O14910
Assay: holdup assay
Parameters: key: below the threshold = too weak to quantify, mostly under pKd 3.1 to 4
Conditions: plain residues with an end cap or a label only (N-terminal biotin on a linker: ado-ado)

Row | Binder | pKd
46 | B1 | below the threshold
47 | B2 | below the threshold
48 | B3 | 3.51

Molecular target: T5, LNX2_3, Q8N448
Assay: holdup assay
Parameters: key: below the threshold = too weak to quantify, mostly under pKd 3.1 to 4
Conditions: plain residues with an end cap or a label only (N-terminal biotin on a linker: ado-ado)

Row | Binder | pKd
49 | B1 | below the threshold
50 | B2 | below the threshold
51 | B3 | below the threshold

Molecular target: MAGI1_1, Q96QZ7
Assay: holdup assay
Parameters: key: below the threshold = too weak to quantify, mostly under pKd 3.1 to 4
Conditions: plain residues with an end cap or a label only (N-terminal biotin on a linker: ado-ado)

Chain of MAGI1_1, Q96QZ7 (Q96QZ7 1-106): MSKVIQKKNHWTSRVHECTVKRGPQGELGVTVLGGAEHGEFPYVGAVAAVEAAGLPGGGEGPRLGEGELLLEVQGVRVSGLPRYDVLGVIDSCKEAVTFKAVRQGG

Row | Binder | pKd
52 | B1 | below the threshold
53 | B2 | below the threshold
54 | B3 | below the threshold

Molecular target: MAGI2_5, Q86UL8
Assay: holdup assay
Parameters: key: below the threshold = too weak to quantify, mostly under pKd 3.1 to 4
Conditions: plain residues with an end cap or a label only (N-terminal biotin on a linker: ado-ado)

Chain of MAGI2_5, Q86UL8 (Q86UL8 915-1017): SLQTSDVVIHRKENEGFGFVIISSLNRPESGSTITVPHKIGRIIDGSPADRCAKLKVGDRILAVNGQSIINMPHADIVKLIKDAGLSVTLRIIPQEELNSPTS

Row | Binder | pKd
55 | B1 | below the threshold
56 | B2 | below the threshold
57 | B3 | 4.78

Molecular target: MAGI2_6, Q86UL8
Assay: holdup assay
Parameters: key: below the threshold = too weak to quantify, mostly under pKd 3.1 to 4
Conditions: plain residues with an end cap or a label only (N-terminal biotin on a linker: ado-ado)

Chain of MAGI2_6, Q86UL8 (Q86UL8 1141-1229): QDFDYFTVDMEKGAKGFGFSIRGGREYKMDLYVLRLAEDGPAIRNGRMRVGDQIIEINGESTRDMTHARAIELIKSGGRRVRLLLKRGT

Row | Binder | pKd
58 | B1 | 3.84
59 | B2 | 3.82
60 | B3 | 4.47

Molecular target: MAST2, Q6P0Q8
Assay: holdup assay
Parameters: key: below the threshold = too weak to quantify, mostly under pKd 3.1 to 4
Conditions: plain residues with an end cap or a label only (N-terminal biotin on a linker: ado-ado)

Chain of MAST2, Q6P0Q8 (Q6P0Q8 1099-1202): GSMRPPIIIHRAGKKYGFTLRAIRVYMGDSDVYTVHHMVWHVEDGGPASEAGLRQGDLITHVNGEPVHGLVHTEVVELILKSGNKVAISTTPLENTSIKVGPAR

Row | Binder | pKd
61 | B1 | below the threshold
62 | B2 | 3.87
63 | B3 | 4.52

Molecular target: T6, MPP2, Q14168
Assay: holdup assay
Parameters: key: below the threshold = too weak to quantify, mostly under pKd 3.1 to 4
Conditions: plain residues with an end cap or a label only (N-terminal biotin on a linker: ado-ado)

Row | Binder | pKd
64 | B1 | below the threshold
65 | B2 | below the threshold
66 | B3 | below the threshold

Molecular target: NHERF4_1, Q86UT5-2
Assay: holdup assay
Parameters: key: below the threshold = too weak to quantify, mostly under pKd 3.1 to 4
Conditions: plain residues with an end cap or a label only (N-terminal biotin on a linker: ado-ado)

Chain of NHERF4_1, Q86UT5-2 (Q86UT5 other isoform, or with tags, fused parts or gaps): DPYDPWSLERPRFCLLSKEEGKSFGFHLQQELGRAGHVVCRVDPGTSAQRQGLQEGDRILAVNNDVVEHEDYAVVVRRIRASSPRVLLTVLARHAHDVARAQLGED

Row | Binder | pKd
67 | B1 | 3.59
68 | B2 | 3.81
69 | B3 | below the threshold

Molecular target: T7, PARD3B_1, Q8TEW8
Assay: holdup assay
Parameters: key: below the threshold = too weak to quantify, mostly under pKd 3.1 to 4
Conditions: plain residues with an end cap or a label only (N-terminal biotin on a linker: ado-ado)

Row | Binder | pKd
70 | B1 | 3.91
71 | B2 | below the threshold
72 | B3 | below the threshold

Molecular target: T8, PDZRN3_1, Q9UPQ7
Assay: holdup assay
Parameters: key: below the threshold = too weak to quantify, mostly under pKd 3.1 to 4
Conditions: plain residues with an end cap or a label only (N-terminal biotin on a linker: ado-ado)

Row | Binder | pKd
73 | B1 | below the threshold
74 | B2 | below the threshold
75 | B3 | below the threshold

Molecular target: PTPN3, P26045
Assay: holdup assay
Parameters: key: below the threshold = too weak to quantify, mostly under pKd 3.1 to 4
Conditions: plain residues with an end cap or a label only (N-terminal biotin on a linker: ado-ado)

Chain of PTPN3, P26045 (P26045 505-587): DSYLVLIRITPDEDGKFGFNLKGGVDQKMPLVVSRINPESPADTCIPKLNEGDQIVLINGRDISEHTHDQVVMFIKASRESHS

Row | Binder | pKd
76 | B1 | below the threshold
77 | B2 | below the threshold
78 | B3 | 4.86

Molecular target: T9, RADIL, Q96JH8
Assay: holdup assay
Parameters: key: below the threshold = too weak to quantify, mostly under pKd 3.1 to 4
Conditions: plain residues with an end cap or a label only (N-terminal biotin on a linker: ado-ado)

Row | Binder | pKd
79 | B1 | below the threshold
80 | B2 | 4.35
81 | B3 | 4.53

Molecular target: SCRIB_1, Q14160
Assay: holdup assay
Parameters: key: below the threshold = too weak to quantify, mostly under pKd 3.1 to 4
Conditions: plain residues with an end cap or a label only (N-terminal biotin on a linker: ado-ado)

Chain of SCRIB_1, Q14160 (Q14160 718-814): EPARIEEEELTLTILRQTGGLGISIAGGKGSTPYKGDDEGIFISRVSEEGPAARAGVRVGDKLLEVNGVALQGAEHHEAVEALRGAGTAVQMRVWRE

Row | Binder | pKd
82 | B1 | 3.49
83 | B2 | below the threshold
84 | B3 | below the threshold

Molecular target: SNX27, Q96L92
Assay: holdup assay
Parameters: key: below the threshold = too weak to quantify, mostly under pKd 3.1 to 4
Conditions: plain residues with an end cap or a label only (N-terminal biotin on a linker: ado-ado)

Row | Binder | pKd
85 | B1 | 3.79
86 | B2 | 3.83
87 | B3 | 5.15
